Experimental data taken from publication PMC11490574, “IGF2BP1 phosphorylation in the disordered linkers regulates ribonucleoprotein condensate formation and RNA metabolism”.

B1: XBP1 201 nt (ssRNA)
RNA: UCUCAAAUCUGCUUUCAUCCAGCCACUGCCCAAAGCCAUCUUCCUGCCUACUGGAUGCUUACAGUGACUGUGGAUACGGGGGUUCCCUUUCCCCAUUCAGUGACAUGUCCUCUCUGCUUGGUGUAAACCAUUCUUGGGAGGACACUUUUGCCAAUGAACUCUUUCCCCAGCUGAUUAGUGUCUAAGGAAUGAUCCAAUACU
B2: EIF2A 200 nt (ssRNA)
RNA: AGAAAAUUCAGAAAGAAACAGCCCUUCUCCAGGAGCUGGAAGAUUUGGAAUUGGGUAUUUAAAGAUUCACGGAAAGCAAGUUGAUGACCAGAAAUCAGUGCAAACACAUCUUCUGUUAAACCCAUUGGUAUACACAGAAUAUUCCUGUGCCCACACUUAAUGUCAAUCUAUAAUUUUAACCAUUUAUCCAAGAUUCUACU
B3: MYC 191 nt (ssRNA)
RNA: UGCGUGACCAGAUCCCGGAGUUGGAAAACAAUGAAAAGGCCCCCAAGGUAGUUAUCCUUAAAAAAGCCACAGCAUACAUCCUGUCCGUCCAAGCAGAGGAGCAAAAGCUCAUUUCUGAAGAGGACUUGUUGCGGAAACGACGAGAACAGUUGAAACACAAACUUGAACAGCUACGGAACUCUUGUGCGUAA

Assays:
IGF2BP1 S181E [1] = target: T1, IGF2BP1 S181E (UniProt Q9NZI8 1-577, S181E); assay: EMSA; EMSA: 25 mM HEPES pH 7.3, 150 mM NaCl, 5% glycerol, 2 mM EDTA, 10 ug/mL heparin, 0.5 mM TCEP, on ice, gel 4 C; FA: 25 mM HEPES 7.3, 150 mM NaCl, 0.025% Tween 20, 10 ug/mL heparin, 2 mM EDTA, 0.5 mM TCEP, 10 nM RNA, 20 C; details: protein: recombinant; tags: GST removed by 3C
T1 sequence (Q9NZI8 whole entry S181E): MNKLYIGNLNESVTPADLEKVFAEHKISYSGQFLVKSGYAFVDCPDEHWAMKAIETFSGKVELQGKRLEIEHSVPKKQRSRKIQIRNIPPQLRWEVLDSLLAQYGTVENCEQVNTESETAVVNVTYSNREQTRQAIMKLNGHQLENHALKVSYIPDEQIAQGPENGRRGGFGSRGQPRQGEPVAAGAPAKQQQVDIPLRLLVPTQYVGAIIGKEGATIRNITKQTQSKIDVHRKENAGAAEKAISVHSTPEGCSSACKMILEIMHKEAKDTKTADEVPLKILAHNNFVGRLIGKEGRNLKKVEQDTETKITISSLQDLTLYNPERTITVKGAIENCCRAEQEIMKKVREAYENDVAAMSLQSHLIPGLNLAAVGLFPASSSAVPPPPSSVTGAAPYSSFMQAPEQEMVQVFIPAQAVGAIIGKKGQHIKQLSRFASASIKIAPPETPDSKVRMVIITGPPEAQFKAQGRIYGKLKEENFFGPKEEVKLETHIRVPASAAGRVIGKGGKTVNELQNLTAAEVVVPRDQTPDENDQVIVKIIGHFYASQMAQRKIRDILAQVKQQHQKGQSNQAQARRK

IGF2BP1 RQ [2] = target: T2, IGF2BP1 RQ (UniProt Q9NZI8 1-577, R167Q;R168Q;R174Q;R178Q); assay: as above; details: protein: recombinant; tags: GST removed by 3C
T2 sequence (Q9NZI8 whole entry R167Q/R168Q/R174Q/R178Q): as the sequence (Q9NZI8 whole entry S181E) above, with R167Q, R168Q, R174Q, R178Q, E181S counted along it

IGF2BP1 Y396E [3] = target: T3, IGF2BP1 Y396E (UniProt Q9NZI8 1-577, Y396E); assay: as above; details: protein: recombinant; tags: GST removed by 3C
T3 sequence (Q9NZI8 whole entry Y396E): as the sequence (Q9NZI8 whole entry S181E) above, with E181S, Y396E counted along it

IGF2BP1 wild-type [4] = target: T4, IGF2BP1 wild-type (UniProt Q9NZI8 1-577); assay: as above; details: protein: recombinant; tags: GST removed by 3C
T4 sequence (Q9NZI8 whole entry): as the sequence (Q9NZI8 whole entry S181E) above, with E181S counted along it

[5] = target: T5, IGF2BP1 KH3-4dR (KH3GEEG-KH4GEEG) (UniProt Q9NZI8 1-577, K423E;K424E;K505E;G506E); assay: as above; details: protein: recombinant; tags: GST removed by 3C
T5 sequence (Q9NZI8 whole entry K423E/K424E/K505E/G506E): as the sequence (Q9NZI8 whole entry S181E) above, with E181S, K423E, K424E, K505E, G506E counted along it

IGF2BP1 KH1-4 = IGF2BP1 KH1-4 (UniProt Q9NZI8 195-553); assay: fluorescence anisotropy; EMSA: 25 mM HEPES pH 7.3, 150 mM NaCl, 5% glycerol, 2 mM EDTA, 10 ug/mL heparin, 0.5 mM TCEP, on ice, gel 4 C; FA: 25 mM HEPES 7.3, 150 mM NaCl, 0.025% Tween 20, 10 ug/mL heparin, 2 mM EDTA, 0.5 mM TCEP, 10 nM RNA, 20 C; details: protein: recombinant; tags: His removed by 3C; label: 5'-fluorescein
Sequence of IGF2BP1 KH1-4 (Q9NZI8 195-553): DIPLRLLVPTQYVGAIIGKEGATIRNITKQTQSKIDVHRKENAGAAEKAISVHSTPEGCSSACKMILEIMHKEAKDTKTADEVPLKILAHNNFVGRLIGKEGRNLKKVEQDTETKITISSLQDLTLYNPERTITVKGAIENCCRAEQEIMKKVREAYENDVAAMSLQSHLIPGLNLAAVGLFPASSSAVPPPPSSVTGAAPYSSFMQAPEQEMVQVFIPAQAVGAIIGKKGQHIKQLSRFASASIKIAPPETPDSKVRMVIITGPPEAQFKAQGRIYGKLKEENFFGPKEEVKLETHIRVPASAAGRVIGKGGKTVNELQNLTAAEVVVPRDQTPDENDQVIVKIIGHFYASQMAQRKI

IGF2BP1 KH3-4 = IGF2BP1 KH3-4 (UniProt Q9NZI8 405-553); assay: as above; details: protein: recombinant; tags: His removed by 3C; label: 5'-fluorescein
Sequence of IGF2BP1 KH3-4 (Q9NZI8 405-553): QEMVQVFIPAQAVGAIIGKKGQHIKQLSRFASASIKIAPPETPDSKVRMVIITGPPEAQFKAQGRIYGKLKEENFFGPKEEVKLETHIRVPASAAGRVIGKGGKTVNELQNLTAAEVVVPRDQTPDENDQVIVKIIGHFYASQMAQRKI

IGF2BP1 wild-type [6] = target: T4, IGF2BP1 wild-type; assay: as above; details: protein: recombinant; tags: GST removed by 3C; label: 5'-fluorescein
IGF2BP1 S181E [7] = target: T1, IGF2BP1 S181E; assay: as above; details: protein: recombinant; tags: GST removed by 3C; label: 5'-fluorescein
IGF2BP1 RQ [8] = target: T2, IGF2BP1 RQ; assay: as above; details: protein: recombinant; tags: GST removed by 3C; label: 5'-fluorescein
IGF2BP1 Y396E [9] = target: T3, IGF2BP1 Y396E; assay: as above; details: protein: recombinant; tags: GST removed by 3C; label: 5'-fluorescein
[10] = target: T5, IGF2BP1 KH3-4dR (KH3GEEG-KH4GEEG); assay: as above; details: protein: recombinant; tags: GST removed by 3C; label: 5'-fluorescein

| Binder | apparent K (half saturation) (IGF2BP1 S181E [1]) [nM] | binding result (IGF2BP1 RQ [2]) | apparent K (half saturation) (IGF2BP1 Y396E [3]) [nM] | apparent K (half saturation) (IGF2BP1 wild-type [4]) [nM] | apparent K (half saturation) [5] [nM] | apparent K (half saturation) (IGF2BP1 KH1-4) [nM] | apparent K (half saturation) (IGF2BP1 KH3-4) [nM] | apparent K (half saturation) (IGF2BP1 wild-type [6]) [nM] | apparent K (half saturation) (IGF2BP1 S181E [7]) [nM] | binding result (IGF2BP1 RQ [8]) | apparent K (half saturation) (IGF2BP1 Y396E [9]) [nM] | apparent K (half saturation) [10] [nM] |
| --- | --- | --- | --- | --- | --- | --- | --- | --- | --- | --- | --- | --- |
| B1 | 17.1 | binds | 22.9 | 41 | 64.7 | – | – | – | – | – | – | – |
| ACCGGACUGUUACCAACACCCACACCCC (ssRNA) [ACTB 28 nt] | – | – | – | – | – | 75.2 | 1570 | 68.5 | – | – | – | – |
| B2 | 35.4 | – | 40.2 | 48.2 | – | – | – | – | – | – | – | – |
| B3 | 17.8 | – | 16.7 | 14.4 | – | – | – | – | – | – | – | – |
| GUGACAUGUCCUCUCUGCUUGGUGUAAACCAUUCUU (ssRNA) [XBP1 36 nt] | – | – | – | – | – | 204 | ~1500 | 312 | 310 | binds | 423 | 186 |
